The subject of data set [1] is Nc1ccn([C@@H]2O[C@H](CO)[C@H]3OP(=O)(O)O[C@H]32)c(=O)n1. The data set is described as follows: purified protein. As to conditions: 50 mM Tris-HCl pH 7.5, 2 mM MnCl2, 0.1 mg/mL BSA, 37 °C, excess alkaline phosphatase.
From the text: (§1) coupled alkaline phosphatase, colorimetric phosphate release, initial rates, Michaelis-Menten fit on S. enterica CpdB
For data set [2], the system named is Nc1nc2c(ncn2[C@@H]2O[C@@H]3COP(=O)(O)O[C@H]4[C@@H](O)[C@H](n5cnc6c(N)ncnc65)O[C@@H]4COP(=O)(O)O[C@H]3[C@H]2O)c(=O)[nH]1. The data set is described as follows: purified protein. As to conditions: 50 mM Tris-HCl pH 7.5, 2 mM MnCl2, 0.1 mg/mL BSA, 37 °C.
Data set [3] deals with Nc1nc2c(ncn2[C@@H]2O[C@@H]3CO[P@](=O)(O)O[C@H]4[C@@H](O)[C@H](n5cnc6c(=O)[nH]c(N)nc65)O[C@@H]4CO[P@](=O)(O)O[C@H]3[C@H]2O)c(=O)[nH]1. The data set is described as follows: purified protein. As to conditions: 50 mM Tris-HCl pH 7.5, 2 mM MnCl2, 0.1 mg/mL BSA, 37 °C.
Data set [4] concerns Nc1nc2c(ncn2[C@@H]2O[C@H](CO)[C@@H](OP(=O)(O)O)[C@H]2O)c(=O)[nH]1. The data set is described as follows: purified protein. As to conditions: 50 mM Tris-HCl pH 7.5, 2 mM MnCl2, 0.1 mg/mL BSA, 37 °C.
From the text: (§2) colorimetric phosphate release, initial rates, Michaelis-Menten fit on S. enterica CpdB
Data set [5] concerns Nc1nc2c(ncn2[C@@H]2O[C@H](CO)[C@H]3OP(=O)(O)O[C@H]32)c(=O)[nH]1. The data set is described as follows: purified protein. As to conditions: 50 mM Tris-HCl pH 7.5, 2 mM MnCl2, 0.1 mg/mL BSA, 37 °C, excess alkaline phosphatase.
From the text: as §1
Data set [6] relates to Nc1ncnc2c1ncn2[C@@H]1O[C@@H]2COP(=O)(O)O[C@H]3[C@@H](O)[C@H](n4cnc5c(N)ncnc54)O[C@@H]3COP(=O)(O)O[C@H]3[C@@H](O)[C@H](n4cnc5c(N)ncnc54)O[C@@H]3COP(=O)(O)O[C@H]3[C@@H](O)[C@H](n4cnc5c(N)ncnc54)O[C@@H]3COP(=O)(O)O[C@H]2[C@H]1O. The data set is described as follows: purified protein. As to conditions: 50 mM Tris-HCl pH 7.5, 2 mM MnCl2, 0.1 mg/mL BSA, 37 °C.
In data set [7] the test system is Nc1ncnc2c1ncn2[C@@H]1O[C@@H]2COP(=O)(O)O[C@H]3[C@@H](O)[C@H](n4cnc5c(N)ncnc54)O[C@@H]3COP(=O)(O)O[C@H]3[C@@H](O)[C@H](n4cnc5c(N)ncnc54)O[C@@H]3COP(=O)(O)O[C@H]3[C@@H](O)[C@H](n4cnc5c(N)ncnc54)O[C@@H]3COP(=O)(O)O[C@H]3[C@@H](O)[C@H](n4cnc5c(N)ncnc54)O[C@@H]3COP(=O)(O)O[C@H]3[C@@H](O)[C@H](n4cnc5c(N)ncnc54)O[C@@H]3COP(=O)(O)O[C@H]2[C@H]1O. The data set is described as follows: purified protein. As to conditions: 50 mM Tris-HCl pH 7.5, 2 mM MnCl2, 0.1 mg/mL BSA, 37 °C.

For data set [8], the system named is Nc1ncnc2c1ncn2[C@@H]1O[C@H](CO)[C@@H](OP(=O)(O)O)[C@H]1O. The data set is described as follows: purified protein. As to conditions: 50 mM Tris-HCl pH 7.5, 2 mM MnCl2, 0.1 mg/mL BSA, 37 °C.
From the text: as §2
The subject of data set [9] is Nc1ncnc2c1ncn2[C@@H]1O[C@H](CO)[C@H]2OP(=O)(O)O[C@H]21. The data set is described as follows: purified protein. As to conditions: 50 mM Tris-HCl pH 7.5, 2 mM MnCl2, 0.1 mg/mL BSA, 37 °C, excess alkaline phosphatase.
From the text: as §1
Data set [10] concerns Nc1ncnc2c1ncn2[C@@H]1O[C@H](COP(=O)(O)OP(=O)(O)O)[C@@H](O)[C@H]1O. The data set is described as follows: purified protein. As to conditions: 50 mM Tris-HCl pH 7.5, 2 mM MnCl2, 0.1 mg/mL BSA, 37 °C.
From the text: as §2
Data set [11] has as its system Nc1ncnc2c1ncn2[C@@H]1O[C@H](COP(=O)(O)OP(=O)(O)OP(=O)(O)OC[C@H]2O[C@@H](n3cnc4c(N)ncnc43)[C@H](O)[C@@H]2O)[C@@H](O)[C@H]1O. The data set is described as follows: purified protein. As to conditions: 50 mM Tris-HCl pH 7.5, 2 mM MnCl2, 0.1 mg/mL BSA, 37 °C, excess alkaline phosphatase.
From the text: as §1
Data set [12] deals with Nc1ncnc2c1ncn2[C@@H]1O[C@H](COP(=O)(O)OP(=O)(O)OP(=O)(O)OP(=O)(O)OC[C@H]2O[C@@H](n3cnc4c(N)ncnc43)[C@H](O)[C@@H]2O)[C@@H](O)[C@H]1O. The data set is described as follows: purified protein. As to conditions: 50 mM Tris-HCl pH 7.5, 2 mM MnCl2, 0.1 mg/mL BSA, 37 °C, excess alkaline phosphatase.
From the text: as §1
The subject of data set [13] is Nc1ncnc2c1ncn2[C@@H]1O[C@H](COP(=O)(O)O[C@H]2[C@@H](O)[C@H](n3cnc4c(N)ncnc43)O[C@@H]2COP(=O)(O)O)[C@@H](O)[C@H]1O. The data set is described as follows: purified protein. As to conditions: 50 mM Tris-HCl pH 7.5, 2 mM MnCl2, 0.1 mg/mL BSA, 37 °C.
Data set [14] deals with O=[N+]([O-])c1ccc(OP(=O)(O)Oc2ccc([N+](=O)[O-])cc2)cc1. The data set is described as follows: purified protein. As to conditions: 50 mM Tris-HCl pH 7.5, 2 mM MnCl2, 0.1 mg/mL BSA, 37 °C, excess alkaline phosphatase.
From the text: as §1
The subject of data set [15] is O=c1ccn([C@@H]2O[C@H](CO)[C@@H](OP(=O)(O)O)[C@H]2O)c(=O)[nH]1. The data set is described as follows: purified protein. As to conditions: 50 mM Tris-HCl pH 7.5, 2 mM MnCl2, 0.1 mg/mL BSA, 37 °C.
From the text: as §2
In data set [16] the test system is O=c1ccn([C@@H]2O[C@H](CO)[C@H]3OP(=O)(O)O[C@H]32)c(=O)[nH]1. The data set is described as follows: purified protein. As to conditions: 50 mM Tris-HCl pH 7.5, 2 mM MnCl2, 0.1 mg/mL BSA, 37 °C, excess alkaline phosphatase.
From the text: as §1
In data set [17] the test system is [H][C@@]1(O)[C@]2([H])OP(=O)(O)OC[C@@]3([H])O[C@@]([H])(n4cnc5c(N)ncnc54)[C@]([H])(O)[C@]3([H])OP(=O)(O)OC[C@@]2([H])O[C@@]1([H])n1cnc2c(N)ncnc21. The data set is described as follows: purified protein. As to conditions: 50 mM Tris-HCl pH 7.5, 2 mM MnCl2, 0.1 mg/mL BSA, 37 °C.
A further data set relates to T1, SntA.
T1 construct: cell wall-attached protein of 813 residues; preparation from earlier work [10]
The data set is described as follows: HPLC at […] nm of […]'-AMP formed, initial rates, Michaelis-Menten fit. As to conditions: 50 mM Tris-HCl pH 7.5, 2 mM MnCl2, 0.1 mg/mL BSA, 37 °C; read-out: K m ^1 /. Type of data set: biochemical, Streptococcus suis.

Take “S. enterica CpdB (Salmonella enterica subsp. enterica serovar Typhimurium str. LT2)”: the Km in [1] was found to be 4.52 ± 0.69 µM; in data set [2], 2.13 ± 0.32 µM; in data set [3] it was 4.12 ± 0.98 µM; in data set [4], 4.66 ± 1.34 µM; in [5], 7.52 ± 1.46 µM; in data set [6], 18.44 ± 4.95 µM. The Km in data set [7] was determined as 24.24 ± 7.60 µM; in data set [8] it was 6.53 ± 1.16 µM; in [9], 14.41 ± 3.68 µM; in [10], 28.09 ± 1.82 µM; in data set [11], 69.09 ± 19.31 µM; in data set [12], 49.21 ± 12.46 µM. Further, the Km is 0.22 ± 0.12 µM in data set [13]; 33.74 ± 4.77 µM in data set [14]; 4.54 ± 0.53 µM in [15]; 22.65 ± 2.56 µM in data set [16]; 8.89 ± 2.31 µM in data set [17]. In addition, the kcat in data set [1] came to 146 ± 9.39 s⁻¹; in data set [2] it was 0.3 ± 0.03 s⁻¹; in [3], 0.09 ± 0.01 s⁻¹; in [4], 219 ± 48.7 s⁻¹; in data set [5] it was 120 ± 4.74 s⁻¹; in data set [6], 0.042 ± 0.001 s⁻¹. The kcat amounted to 0.006 ± 0.001 s⁻¹ in data set [7]; 172 ± 41.3 s⁻¹ in [8]; 209 ± 16.9 s⁻¹ in data set [9]; 2.83 ± 0.19 s⁻¹ in data set [10]; 2.1 ± 0.17 s⁻¹ in [11]; 2.64 ± 0.24 s⁻¹ in data set [12]. In addition, the kcat in data set [13] was 2.85 ± 1.04 s⁻¹; in [14] it was 250 ± 9.82 s⁻¹; in data set [15] it was 155 ± 13.3 s⁻¹; in data set [16], 324 ± 21.8 s⁻¹; in [17], 0.31 ± 0.06 s⁻¹. Moreover, the kcat/Km in data set [1] came to 3.32e+07 M⁻¹ s⁻¹; in data set [2], 197000 M⁻¹ s⁻¹; in data set [3] it was 22400 M⁻¹ s⁻¹; in data set [4], 5.23e+07 M⁻¹ s⁻¹; in data set [5], 1.63e+07 M⁻¹ s⁻¹; in data set [6], 2370 M⁻¹ s⁻¹. Also, the kcat/Km in data set [7] is 238 M⁻¹ s⁻¹; in data set [8], 2.76e+07 M⁻¹ s⁻¹; in data set [9], 1.53e+07 M⁻¹ s⁻¹; in data set [10], 101000 M⁻¹ s⁻¹; in data set [11] it was 31600 M⁻¹ s⁻¹; in [12], 55000 M⁻¹ s⁻¹. The kcat/Km in data set [13] was determined as 1.39e+07 M⁻¹ s⁻¹; in data set [14], 7.53e+06 M⁻¹ s⁻¹; in data set [15], 3.42e+07 M⁻¹ s⁻¹; in [16], 1.44e+07 M⁻¹ s⁻¹; in [17], 35500 M⁻¹ s⁻¹.

As to `Nc1ncnc2c1ncn2[C@@H]1O[C@@H]2COP(=O)(O)O[C@H]3[C@@H](O)[C@H](n4cnc5c(N)ncnc54)O[C@@H]3COP(=O)(O)O[C@H]3[C@@H](O)[C@H](n4cnc5c(N)ncnc54)O[C@@H]3COP(=O)(O)O[C@H]3[C@@H](O)[C@H](n4cnc5c(N)ncnc54)O[C@@H]3COP(=O)(O)O[C@H]3[C@@H](O)[C@H](n4cnc5c(N)ncnc54)O[C@@H]3COP(=O)(O)O[C@H]3[C@@H](O)[C@H](n4cnc5c(N)ncnc54)O[C@@H]3COP(=O)(O)O[C@H]2[C@H]1O` [c-hexa-AMP], the Km in the data set on SntA was found to be 2.63 ± 0.88 µM.

`Nc1ncnc2c1ncn2[C@@H]1O[C@@H]2COP(=O)(O)O[C@H]3[C@@H](O)[C@H](n4cnc5c(N)ncnc54)O[C@@H]3COP(=O)(O)O[C@H]3[C@@H](O)[C@H](n4cnc5c(N)ncnc54)O[C@@H]3COP(=O)(O)O[C@H]3[C@@H](O)[C@H](n4cnc5c(N)ncnc54)O[C@@H]3COP(=O)(O)O[C@H]2[C@H]1O` [c-tetra-AMP]: the Km in the data set with SntA was determined as 262 ± 62.1 µM.

In general, kcat refers to the maximal rate divided by the concentration of active sites. For orientation: kcat/Km means the turnover number divided by the Michaelis constant.

The values are drawn from PMC9958556, “Genomic Distribution of Pro-Virulent cpdB-like Genes in Eubacteria and Comparison of the Enzyme Specificity of CpdB-like Proteins from Salmonella enterica, Escherichia coli and Streptococcus suis” (International Journal of Molecular Sciences, 2023).
